# Measurements taken from the Immune Epitope Database (IEDB).
# Legend:
# HLA-A*31:01 = assay: IEDB peptide-MHC binding, purified MHC/competitive/fluorescence; filed as Kd, often an IC50 or EC50 that approximates it; ≥ and ≤ were set here for values at or beyond the usual limits of such assays
# HLA-A*11:01 [1] = assay: IEDB peptide-MHC binding, purified MHC/direct/fluorescence; filed as Kd, often an IC50 or EC50 that approximates it; ≥ and ≤ were set here for values at or beyond the usual limits of such assays
# HLA-A*30:02 = assay: IEDB peptide-MHC binding, purified MHC/competitive/radioactivity; filed as Kd, often an IC50 or EC50 that approximates it; ≥ and ≤ were set here for values at or beyond the usual limits of such assays; conditions: source organism: Dengue virus 4 Philippines/H241/1956
# HLA-B*15:01 [2] = assay: as above; conditions: source organism: Dengue virus 4 Philippines/H241/1956
# HLA-A*03:01 [3] = assay: IEDB peptide-MHC binding, purified MHC/competitive/fluorescence; ≥ and ≤ were set here for values at or beyond the usual limits of such assays
# HLA-A*11:01 [4] = assay: as above
# HLA-A*02:01 = assay: IEDB peptide-MHC binding, purified MHC/competitive/fluorescence; filed as Kd, often an IC50 or EC50 that approximates it; ≥ and ≤ were set here for values at or beyond the usual limits of such assays; conditions: source organism: Brucella abortus bv. 2 str. 86/8/59
# HLA-A*02:11 = assay: as above; conditions: source organism: Brucella abortus bv. 2 str. 86/8/59
# HLA-A*03:01 [5] = assay: as above; conditions: source organism: Kurkino virus
# HLA-C*05:01 = assay: IEDB peptide-MHC binding, purified MHC/direct/fluorescence; filed as Kd, often an IC50 or EC50 that approximates it; ≥ and ≤ were set here for values at or beyond the usual limits of such assays; conditions: source organism: West Nile virus
# HLA-A*69:01 = assay: as above
# HLA-A*02:03 = assay: as above; conditions: source organism: Mycobacterium tuberculosis str. Haarlem
# HLA-B*15:01 [6] = assay: IEDB peptide-MHC binding, purified MHC/competitive/fluorescence; ≥ and ≤ were set here for values at or beyond the usual limits of such assays; conditions: source organism: Zaire ebolavirus
# HLA-A*29:02 = assay: IEDB peptide-MHC binding, purified MHC/competitive/fluorescence; filed as Kd, often an IC50 or EC50 that approximates it; ≥ and ≤ were set here for values at or beyond the usual limits of such assays; conditions: source organism: Listeria monocytogenes FSL R2-561
# HLA-B*57:01 = assay: IEDB peptide-MHC binding, purified MHC/direct/fluorescence; filed as Kd, often an IC50 or EC50 that approximates it; ≥ and ≤ were set here for values at or beyond the usual limits of such assays; conditions: source organism: Giardia lamblia ATCC 50803
# HLA-B*15:17 = assay: as above; conditions: source organism: Giardia lamblia ATCC 50803
# HLA-B*58:01 = assay: as above; conditions: source organism: Giardia lamblia ATCC 50803
# HLA-A*03:01 [7] = assay: as above
# [8] = source organism: dengue virus type 4
# [9] = source organism: Sudan ebolavirus
# [10] = source organism: Zaire ebolavirus
# [11] = source organism: Eastern equine encephalitis virus (STRAIN VA33[TEN BROECK])
sequence,measurement,setting,value
KVASAGISY,Kd,HLA-A*31:01; [8],≥ 20 µM
same,Kd,HLA-A*11:01 [1]; [8],0.0521 µM
same,Kd,HLA-A*30:02,0.0404 µM
same,Kd,HLA-B*15:01 [2],0.00185 µM
QLPRDKFRK,IC50,HLA-A*03:01 [3]; [9],3.38 µM
same,IC50,HLA-A*11:01 [4]; [9],0.723 µM
ILDDPEIYP,Kd,HLA-A*02:01,12 µM
same,Kd,HLA-A*02:11,0.677 µM
MLYKSSKSR,Kd,HLA-A*03:01 [5],0.0032 µM
same,Kd,HLA-A*31:01; source organism: Kurkino virus,0.0517 µM
FLAVGGVLL,Kd,HLA-C*05:01,4.18 µM
same,Kd,HLA-A*69:01; source organism: West Nile virus,≥ 20 µM
VLLDSITRL,Kd,HLA-A*02:03,≤ 0.001 µM
same,Kd,HLA-A*69:01; source organism: Mycobacterium tuberculosis,4.35 µM
ASLPKTSGH,IC50,HLA-A*03:01 [3]; [10],20.1 µM
same,IC50,HLA-A*11:01 [4]; [10],2.61 µM
same,IC50,HLA-B*15:01 [6],≥ 143 µM
ANNNRLPKR,IC50,HLA-A*11:01 [4]; source organism: Vaccinia virus WR,11.7 µM
IFFLPQFYY,Kd,HLA-A*29:02,0.0016 µM
NTWNQITKF,Kd,HLA-B*57:01,1.11 µM
same,Kd,HLA-B*15:17,0.0764 µM
same,Kd,HLA-B*58:01,0.905 µM
ITYGSVSWR,Kd,HLA-A*31:01; source organism: Eastern equine encephalitis virus,0.0015 µM
same,Kd,HLA-A*03:01 [7]; [11],0.0612 µM
same,Kd,HLA-A*11:01 [1]; [11],0.0068 µM
RVIPPSLLR,Kd,HLA-A*31:01; source organism: Mycobacterium tuberculosis C,0.0135 µM
same,Kd,HLA-A*03:01 [7]; source organism: Mycobacterium leprae,1.75 µM
